The results in this text go back to patent US20120100106A1.

The target of test [1] is collagen. Nature of the test: SPR (Biacore 2000), collagen immobilised on CM-3 chip, peptide in solution 100 µM to 1.5 µM, from on-off kinetics.
In test [2] the target is collagen. Nature of the test: fluorescence plate binding assay, collagen coated on 96-well high-binding plate, equilibrium fit.

Ends that are not written are not given here. * marks the point of attachment. Dansyl = CN(C)c1cccc2c(S(=O)(=O)*)cccc12

As for RRANAALKAGELYKSILYGC [… (SILY) peptide], the Kd with collagen [1] was 1200 nM. In the test with collagen [2], Dansyl-GRRANAALKAGELYKSILYGC [Dansyl-…] yielded a Kd of 860 nM.
